From patent US20180291110A1 (Hoffmann-La Roche, published 2018) come the findings set out here.

One may read the EC50 as the concentration giving half of the maximal effect. High values mean a less potent agent, low ones a more potent agent. A word on the koff: it is the rate constant with which the complex falls apart. Usually Kd stands for the free concentration of one partner at which half of the binding sites on the other are occupied at equilibrium, for simple one-to-one binding. Lower therefore signals tighter binding. The term kon denotes the second-order rate constant of association. High values mean fast association, low ones slow association.

The target in assay [1] is T1, cynomolgus transferrin receptor on CHO-K1 cells (cynomolgus, UniProt H9EXL1 1-760 (rhesus entry)).
T1 construct: whole, on cells; also called cyTfR; Cyno TfR-CHO
Nature of the assay: FACS, cyTfR-CHO. For orientation: In flow cytometry, cells or beads pass a laser one at a time.

Assay [2] concerns the target T2, human transferrin receptor on CHO-K1 cells (human, UniProt P02786 1-760).
T2 construct: whole, on cells; also called hTfR-CHO
In words: FACS, hTfR-CHO.

Assay [3] addresses T3, human transferrin receptor (recombinant, for surface plasmon resonance) (human, UniProt P02786 89-760).
T3 construct: also called huTfR; human transferrin receptor-biotinylated
Nature of the assay: BIAcore. (Surface plasmon resonance follows binding to a sensor surface in real time, without labels.)

The target of assay [4] is T4, cynomolgus transferrin receptor (recombinant, for surface plasmon resonance) (cynomolgus).
T4 chain: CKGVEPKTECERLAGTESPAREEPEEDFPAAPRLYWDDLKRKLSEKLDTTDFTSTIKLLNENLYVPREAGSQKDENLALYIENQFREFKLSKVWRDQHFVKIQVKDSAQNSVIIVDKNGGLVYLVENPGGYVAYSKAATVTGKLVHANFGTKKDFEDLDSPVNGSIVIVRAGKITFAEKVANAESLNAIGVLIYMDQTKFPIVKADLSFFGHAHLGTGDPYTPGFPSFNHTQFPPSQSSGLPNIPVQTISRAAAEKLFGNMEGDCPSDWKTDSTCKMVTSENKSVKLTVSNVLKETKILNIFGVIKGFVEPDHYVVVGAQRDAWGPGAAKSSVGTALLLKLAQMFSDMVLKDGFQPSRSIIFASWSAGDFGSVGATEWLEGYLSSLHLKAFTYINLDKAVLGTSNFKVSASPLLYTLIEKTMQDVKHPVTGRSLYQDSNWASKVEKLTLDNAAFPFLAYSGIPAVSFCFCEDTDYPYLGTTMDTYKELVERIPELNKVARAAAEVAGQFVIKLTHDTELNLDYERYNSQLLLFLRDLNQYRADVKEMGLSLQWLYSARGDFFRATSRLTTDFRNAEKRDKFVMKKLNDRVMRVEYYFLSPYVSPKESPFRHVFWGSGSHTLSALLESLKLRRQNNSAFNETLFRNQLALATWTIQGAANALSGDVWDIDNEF
Nature of the assay: BIAcore.

Assay [5] addresses T3, human transferrin receptor …. In words: BIAcore, huTfR against cyTfR.
Assay [6] addresses T1, cynomolgus transferrin receptor on …. Nature of the assay: FACS, cyTfR-CHO against hTfR-CHO.
For assay [7], the target named is T5, Her2 ECD (amino acids 1 to 629 of matured HER2 with C-terminal avi-tag and His-tag) (human, UniProt P04626 23-652).
T5 construct: also called purified Her2
Nature of the assay: SPR; Pertuzumab heavy chain with the CLC.

The target of assay [8] is T5, Her2 ECD (amino acids 1 to 629 of …). In words: SPR, Ab captured, Her2 analyte.
The target is the same in assay [9]. In words: SPR, antibody captured, Her2 analyte; N/A in Table 18.

B1: Rabbit anti-transferrin antibody clone 2/99 (antibody, V domains shown)
VH: QSMEESGGRLVTPGTPLTLTCTVSGFSLSSYAMSWVRQAPGKGLEWIGYIWSGGSTDYASWAKGRFTISKTSTTVDLKITSPTTEDTATYFCARRYGTSYPDYGDANGFDPWGPGTLVTVSS
VL: AYDMTQTPASVEVAVGGTVTIKCQASQSISSYLSWYQQKPGQRPKLLIYRASTLASGVSSRFKGSGSGTQFTLTISGVECADAATYYCQQCYSSSNVDNTFGGGTEVVVKR
notes: also called antibody 2/99
As to B1, the EC50 in assay [1] is 0.241 µg/mL; in assay [2] it was 0.275 µg/mL. In addition, the koff in assay [3] turned out to be 0.000616 s⁻¹; in [4] it was 0.000277 s⁻¹. Also, the t1/2 in assay [3] is 19 min; in assay [4], 42 min. Also, the “ratio t1/2 human/Cyno” value in assay [5] was 0.4. For the same molecule, the “ratio EC50 Cyno/human” value in [6] was 0.9. For the same molecule, the “ratio max Cyno/human” value in assay [6] was determined as 1.

B2: Pertuzumab HC x Pertuzumab (Tras.L3)(QM) LC (antibody, V domains shown)
VH: EVQLVESGGGLVQPGGSLRLSCAASGFTFTDYTMDWVRQAPGKGLEWVADVNPNSGGSIYNQRFKGRFTLSVDRSKNTLYLQMNSLRAEDTAVYYCARNLGPSFYFDYWGQGTLVTVSS
VL: DIQMTQSPSSLSASVGDRVTITCKASQDVSTAVAWYQQKPGKAPKLLIYSASFRYTGVPSRFSGSRSGTDFTLTISSLQPEDFATYYCQQHYTTPPTFGQGTKVEIK
notes: also called Pertuzumab heavy chain with the common light chain (CLC)
With B2, in assay [7], binding was put at a Kd of 34 nM. In assay [8], this molecule returned a Kd of 34.2 nM, a koff of 0.00324 s⁻¹ and a kon of 94600 M⁻¹ s⁻¹.

B3: Trastuzumab HC x Pertuzumab (Tras.Y91H) LC (antibody, V domains shown)
VH: not shown
VL: DIQMTQSPSSLSASVGDRVTITCKASQDVSIGVAWYQQKPGKAPKLLIYSASYRYTGVPSRFSGSGSGTDFTLTISSLQPEDFATYYCQQHYIYPYTFGQGTKVEIK
notes: human IgG
In the case of B3, the binding result in [9] is on record as “no binding (tested: 300 nM)”.
